# Article PMC1334386 (PLoS Biology, 2006)
# Entries after “also recorded” stand apart in the source; their conditions may differ.
# Experiments:
# [1] = test system: HAUSP TRAF-like domain (residues 1–206); experiment: gel filtration binding assay with HAUSP (residues 1–206); details: Superdex-200, 25 mM Tris pH 8.0, 100 mM NaCl, 2 mM DTT, 4 °C, SDS-PAGE/Coomassie, protein alone, no competitor
# Protocol: (§1) Size-exclusion chromatography (gel filtration), using a Superdex-200 column (10/30, Amersham Pharmacia Biotech, Piscataway, New Jersey, United States), was employed to carry out all the in vitro binding assays. Proteins subjected to binding tests were incubated at 4 °C for at least 45 min to allow equilibrium to be reached. The flow rate was 0.5 ml/min, and the buffer contained 25 mM Tris (pH 8.0), 100 mM NaCl, and 2 mM DTT. All fractions were collected at 0.5 ml each. Aliquots of relevant fractions were mixed with SDS sample buffer and subjected to SDS-polyacrylamide gel electrophoresis. The proteins were visualized by Coomassie Blue staining. The column was calibrated with molecular-mass standards.
# [2] = test system: HAUSP TRAF-like domain (residues 1–206); experiment: in vitro competition assay using gel filtration chromatography, MDM2 versus p53; assay type: binding; details: 10-fold molar equivalence of p53 (351–382) preincubated with HAUSP 5 min at 4 °C, then one molar equivalence of MDM2 (208–289) 45 min at 4 °C, SDS-PAGE/Coomassie
# [3] = biological target: T1, HAUSP TRAF-like domain (residues 53–206) (Homo sapiens, UniProt Q93009); experiment: gel filtration binding assay of MDM2 fragments with HAUSP TRAF-like domain; details: Superdex-200, HAUSP residues 53–206, 25 mM Tris pH 8.0, 100 mM NaCl, 2 mM DTT, 4 °C
# T1 construct: GST (N); made in house; host or cells: Escherichia coli BL21(DE3), vector pGEX-2T
# Protocol: as §1
# T1 sequence (Q93009 53-206): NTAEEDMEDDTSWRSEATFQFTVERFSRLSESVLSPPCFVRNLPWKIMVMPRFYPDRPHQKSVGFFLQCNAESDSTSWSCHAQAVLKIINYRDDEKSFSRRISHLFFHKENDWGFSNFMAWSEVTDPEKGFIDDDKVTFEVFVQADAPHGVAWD
complex formation with HAUSP (residues 1–206) [1],complex formation with HAUSP TRAF-like domain [3],Molecule,complex formation with HAUSP in competition [2]
interacts,–,"MDM2 (residues 208–289): MDM2 fragment, residues 208–289 (protein) ERSSSSESTGTPSNPDLDAGVSEHSGDWLDQDSVSDQFSVEFEVESLDSEDYSLSEEGQELSDEDDEVYQVTVYQAGESDTD",formed a stable complex only with MDM2; also recorded: formed a stable complex with HAUSP
–,formed a stable complex,MDM2 fragment residues 223–289: MDM2 fragment encompassing residues 223–289 (protein) DLDAGVSEHSGDWLDQDSVSDQFSVEFEVESLDSEDYSLSEEGQELSDEDDEVYQVTVYQAGESDTD,–
–,formed a stable complex,MDM2 fragment residues 170–232: MDM2 fragment encompassing residues 170–232 (protein) ENSDELSGERQRKRHKSDSISLSFDESLALCVIREICCERSSSSESTGTPSNPDLDAGVSEHS,–
